Source: patent US20260139239

T1: Fluorogenic peptide substrate ENLYFQEGGK with E at P1'
T1 chain: ENLYFQEGGK

T2: Fluorogenic peptide substrate ENLYFQGGGK with G at P1'
T2 chain: ENLYFQGGGK

T3: Fluorogenic peptide substrate ENLYFQIGGK with I at P1'
T3 chain: ENLYFQIGGK

T4: Fluorogenic peptide substrate ENLYFQKGGK with K at P1'
T4 chain: ENLYFQKGGK

T5: Fluorogenic peptide substrate ENLYFQLGGK with L at P1'
T5 chain: ENLYFQLGGK

T6: Fluorogenic peptide substrate ENLYFQRGGK with R at P1'
T6 chain: ENLYFQRGGK

T7: Fluorogenic peptide substrate ENLYFQTGGK with T at P1'
T7 chain: ENLYFQTGGK

T8: Fluorogenic peptide substrate ENLYFQVGGK with V at P1'
T8 chain: ENLYFQVGGK

B1: TEV protease variant P1-M218F (SEQ ID NO:1 with Q74L, S135G, I138T, S153N, R203G and M218F) (protein)
chain: GESLFKGPRDYNPISSSICHLTNESDGHTTSLYGIGFGPFIITNKHLFRRNNGTLLVQSLHGVFKVKDTTTLQLHLVDGRDMIIIRMPKDFPPFPQKLKFREPQREERICLVTTNFQTKSMSSMVSDTSCTFPSGDGTFWKHWIQTKDGQCGNPLVSTRDGFIVGIHSASNFTNTNNYFTSVPKNFMELLTNQEAQQWVSGWGLNADSVLWGGHKVFFNKPEEPFQPVKEATQLMN
B2: TEV protease double mutant DM (SEQ ID NO:1 with S153N and R203G) (protein)
chain: GTHHHHHHGSGSGTGESLFKGPRDYNPISSSICHLTNESDGHTTSLYGIGFGPFIITNKHLFRRNNGTLLVQSLHGVFKVKDTTTLQQHLVDGRDMIIIRMPKDFPPFPQKLKFREPQREERICLVTTNFQTKSMSSMVSDTSCTFPSSDGIFWKHWIQTKDGQCGNPLVSTRDGFIVGIHSASNFTNTNNYFTSVPKNFMELLTNQEAQQWVSGWGLNADSVLWGGHKVFMNKPEEPFQPVKEATQLMN

What was measured:
[1] = target: T1, Fluorogenic peptide substrate …
[2] = target: T2, Fluorogenic peptide substrate …
[3] = target: T3, Fluorogenic peptide substrate …
[4] = target: T4, Fluorogenic peptide substrate …
[5] = target: T5, Fluorogenic peptide substrate …
[6] = target: T6, Fluorogenic peptide substrate …
[7] = target: T7, Fluorogenic peptide substrate …
[8] = target: T8, Fluorogenic peptide substrate …

Protein	Km (Michaelis Menten kinetics, fluorogenic peptide cleavage) [1] [µM]	Km (Michaelis Menten kinetics, fluorogenic peptide cleavage) [2] [µM]	Km (Michaelis Menten kinetics, fluorogenic peptide cleavage) [3] [µM]	Km (Michaelis Menten kinetics, fluorogenic peptide cleavage) [4] [µM]	Km (Michaelis Menten kinetics, fluorogenic peptide cleavage) [5] [µM]	Km (Michaelis Menten kinetics, fluorogenic peptide cleavage) [6] [µM]	Km (Michaelis Menten kinetics, fluorogenic peptide cleavage) [7] [µM]	Km (Michaelis Menten kinetics, fluorogenic peptide cleavage) [8] [µM]
B1	1.5	2.9	5.3	7.4	2.2	14.5	1.1	2.5
B2	41	13.7	45.9	13.8	23.2	47.2	7	45.8
